Assay results as given in publication PMC8908270, “Multimodal regulation of myosin VI ensemble transport by cargo adaptor protein GIPC” (The Journal of Biological Chemistry, 2022).

B1: GIPC MIR, C-terminal SNAP-tagged (domain or fragment, human, UniProt O14908 261-333, looked up)
chain: EEKAIEKVDDLLESYMGIRDTELAATMVELGKDKRNPDELAEALDERLGDFAFPDEFVFDVWGAIGDAKVGRY
modifications: benzylguanine-labeled DNA oligo on the SNAP tag (DNA origami scaffold assay)
B2: Myosin VI FL-SNAP (natural protein, human, UniProt Q9UM54 1-1294, looked up)
chain: MEDGKPVWAPHPTDGFQMGNIVDIGPDSLTIEPLNQKGKTFLALINQVFPAEEDSKKDVEDNCSLMYLNEATLLHNIKVRYSKDRIYTYVANILIAVNPYFDIPKIYSSEAIKSYQGKSLGTRPPHVFAIADKAFRDMKVLKMSQSIIVSGESGAGKTENTKFVLRYLTESYGTGQDIDDRIVEANPLLEAFGNAKTVRNNNSSRFGKFVEIHFNEKSSVVGGFVSHYLLEKSRICVQGKEERNYHIFYRLCAGASEDIREKLHLSSPDNFRYLNRGCTRYFANKETDKQILQNRKSPEYLKAGSMKDPLLDDHGDFIRMCTAMKKIGLDDEEKLDLFRVVAGVLHLGNIDFEEAGSTSGGCNLKNKSAQSLEYCAELLGLDQDDLRVSLTTRVMLTTAGGTKGTVIKVPLKVEQANNARDALAKTVYSHLFDHVVNRVNQCFPFETSSYFIGVLDIAGFEYFEHNSFEQFCINYCNEKLQQFFNERILKEEQELYQKEGLGVNEVHYVDNQDCIDLIEAKLVGILDILDEENRLPQPSDQHFTSAVHQKHKDHFRLTIPRKSKLAVHRNIRDDEGFIIRHFAGAVCYETTQFVEKNNDALHMSLESLICESRDKFIRELFESSTNNNKDTKQKAGKLSFISVGNKFKTQLNLLLDKLRSTGASFIRCIKPNLKMTSHHFEGAQILSQLQCSGMVSVLDLMQGGYPSRASFHELYNMYKKYMPDKLARLDPRLFCKALFKALGLNENDYKFGLTKVFFRPGKFAEFDQIMKSDPDHLAELVKRVNHWLTCSRWKKVQWCSLSVIKLKNKIKYRAEACIKMQKTIRMWLCKRRHKPRIDGLVKVGTLKKRLDKFNEVVSVLKDGKPEMNKQIKNLEISIDTLMAKIKSTMMTQEQIQKEYDALVKSSEELLSALQKKKQQEEEAERLRRIQEEMEKERKRREEDEKRRRKEEEERRMKLEMEAKRKQEEEERKKREDDEKRIQAEVEAQLARQKEEESQQQAVLEQERRDRELALRIAQSEAELISDEAQADLALRRSLDSYPVSKNDGTRPKMTPEQMAKEMSEFLSRGPAVLATKAAAGTKKYDLSKWKYAELRDTINTSCDIELLAACREEFHRRLKVYHAWKSKNKKRNTETEQRAPKSVTDYDFAPFLNNSPQQNPAAQIPARQREIEMNRQQRFFRIPFIRPADQYKDPQSKKKGWWYAHFDGPWIARQMELHPDKPPILLVAGKDDMEMCELNLEETGLTRKRGAEILPRQFEEIWERCGGIQYLQNAIESRQARPTYATAMLQSLLK
modifications: Cy3-conjugated (single-molecule TIRF assay); benzylguanine-labeled DNA oligo on the SNAP tag (nanotube and origami assays)

Tests used:
[1] = biological target: mCerulean (mCer)-tagged myosin VI CBD (human) (UniProt Q9UM54); assay: FRET or BRET; bimolecular FRET in solution; CBD-mCer held constant at 30 nM, increasing GIPC MIR–mCit titrated; excitation 430 nm; ΔFRET fit to a hyperbolic dose–response; three protein preparations
Myosin VI FL-SNAP = biological target: B2; assay: cell-based or functional assay
[2] = biological target: B1; assay: cell-based or functional assay

Molecule: mCitrine (mCit)-tagged GIPC MIR (from UniProt O14908 261-333) (domain or fragment)
- Kd [1]: 120 nM

Molecule: B1
- actin gliding speed in the DNA nanotube assay (Myosin VI FL-SNAP patterned at 14 or 28 nm spacing), with 2 μM GIPC MIR against without (Myosin VI FL-SNAP): 2.5 fold

Molecule: B2
- speed of DNA origami scaffolds on single actin filaments, myosin VI recruited through GIPC MIR against direct attachment [2]: 2.3 fold
